By Kd is commonly meant the constant that tells how readily two partners part at equilibrium. Low readings indicate tighter binding, high ones weaker binding.

In assay [1] the target is T1, OmrE (OmrE-His) (Omithinimicrobium cerasi strain USBA17B2, UniProt A0A285VWG3 1-661).
T1 chain: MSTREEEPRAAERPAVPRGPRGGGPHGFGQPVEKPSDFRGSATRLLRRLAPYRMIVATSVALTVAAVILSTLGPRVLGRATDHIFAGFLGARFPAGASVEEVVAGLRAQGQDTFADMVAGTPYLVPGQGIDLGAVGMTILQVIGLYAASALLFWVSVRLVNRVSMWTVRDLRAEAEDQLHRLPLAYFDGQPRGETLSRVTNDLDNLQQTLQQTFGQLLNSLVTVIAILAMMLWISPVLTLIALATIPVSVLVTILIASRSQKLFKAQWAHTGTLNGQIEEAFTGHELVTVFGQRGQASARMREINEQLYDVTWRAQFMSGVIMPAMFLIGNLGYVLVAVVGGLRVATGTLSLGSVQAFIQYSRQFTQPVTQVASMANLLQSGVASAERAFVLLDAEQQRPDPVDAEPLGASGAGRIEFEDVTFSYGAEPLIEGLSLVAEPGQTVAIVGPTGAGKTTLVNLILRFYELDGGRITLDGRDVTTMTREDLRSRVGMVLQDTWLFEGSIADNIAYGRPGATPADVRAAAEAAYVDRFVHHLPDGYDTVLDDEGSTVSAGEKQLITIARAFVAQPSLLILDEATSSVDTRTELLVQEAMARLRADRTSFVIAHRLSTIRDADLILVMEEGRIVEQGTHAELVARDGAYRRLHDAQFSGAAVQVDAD
Put plainly: ITC; replicate #2. Background: In ITC the heat of successive injections is recorded.

In assay [2] the target is T2, NBD-truncated OmrDE (OmrD^tcE^tc) (Omithinimicrobium cerasi strain USBA17B2).
T2 chain 1: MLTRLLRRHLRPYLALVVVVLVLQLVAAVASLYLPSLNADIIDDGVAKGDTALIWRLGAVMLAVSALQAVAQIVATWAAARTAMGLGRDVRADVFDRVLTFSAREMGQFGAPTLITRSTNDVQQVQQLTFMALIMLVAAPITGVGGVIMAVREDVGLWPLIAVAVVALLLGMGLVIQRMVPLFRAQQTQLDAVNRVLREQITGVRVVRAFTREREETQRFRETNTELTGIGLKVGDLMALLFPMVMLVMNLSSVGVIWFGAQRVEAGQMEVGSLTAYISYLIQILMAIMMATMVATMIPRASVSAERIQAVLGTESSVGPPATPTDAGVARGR
T2 chain 2: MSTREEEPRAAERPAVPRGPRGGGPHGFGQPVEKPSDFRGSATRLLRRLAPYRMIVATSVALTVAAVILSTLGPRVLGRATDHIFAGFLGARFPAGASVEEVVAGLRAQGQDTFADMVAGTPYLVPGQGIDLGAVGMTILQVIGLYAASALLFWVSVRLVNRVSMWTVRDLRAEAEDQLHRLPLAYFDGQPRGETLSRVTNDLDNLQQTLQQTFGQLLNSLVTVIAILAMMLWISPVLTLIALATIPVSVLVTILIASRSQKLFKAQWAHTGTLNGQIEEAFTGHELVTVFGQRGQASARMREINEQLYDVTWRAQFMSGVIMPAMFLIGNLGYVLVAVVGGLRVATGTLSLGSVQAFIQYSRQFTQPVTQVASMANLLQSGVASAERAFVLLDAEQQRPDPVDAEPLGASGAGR
Put plainly: ITC; replicate #2.

Assay [3] deals with T3, heterodimeric multidrug resistance ABC transporter OmrDE (Omithinimicrobium cerasi strain USBA17B2, UniProt A0A285VW85 1-577; A0A285VWG3 1-661).
T3 chain 1: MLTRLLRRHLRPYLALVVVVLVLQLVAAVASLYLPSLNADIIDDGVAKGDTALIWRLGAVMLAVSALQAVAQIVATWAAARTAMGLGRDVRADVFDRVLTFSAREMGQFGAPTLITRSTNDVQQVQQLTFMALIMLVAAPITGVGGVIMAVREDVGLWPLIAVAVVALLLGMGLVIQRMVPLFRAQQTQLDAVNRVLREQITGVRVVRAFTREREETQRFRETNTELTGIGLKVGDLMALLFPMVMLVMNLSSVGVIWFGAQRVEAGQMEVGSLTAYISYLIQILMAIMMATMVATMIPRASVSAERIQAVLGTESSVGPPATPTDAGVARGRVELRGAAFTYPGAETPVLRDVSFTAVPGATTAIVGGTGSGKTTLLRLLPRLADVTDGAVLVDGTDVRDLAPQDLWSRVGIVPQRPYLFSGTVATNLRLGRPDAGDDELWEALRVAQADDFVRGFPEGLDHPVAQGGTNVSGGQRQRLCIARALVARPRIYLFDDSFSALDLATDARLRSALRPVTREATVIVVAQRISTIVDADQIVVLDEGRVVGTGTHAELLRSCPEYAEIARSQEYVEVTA
T3 chain 2: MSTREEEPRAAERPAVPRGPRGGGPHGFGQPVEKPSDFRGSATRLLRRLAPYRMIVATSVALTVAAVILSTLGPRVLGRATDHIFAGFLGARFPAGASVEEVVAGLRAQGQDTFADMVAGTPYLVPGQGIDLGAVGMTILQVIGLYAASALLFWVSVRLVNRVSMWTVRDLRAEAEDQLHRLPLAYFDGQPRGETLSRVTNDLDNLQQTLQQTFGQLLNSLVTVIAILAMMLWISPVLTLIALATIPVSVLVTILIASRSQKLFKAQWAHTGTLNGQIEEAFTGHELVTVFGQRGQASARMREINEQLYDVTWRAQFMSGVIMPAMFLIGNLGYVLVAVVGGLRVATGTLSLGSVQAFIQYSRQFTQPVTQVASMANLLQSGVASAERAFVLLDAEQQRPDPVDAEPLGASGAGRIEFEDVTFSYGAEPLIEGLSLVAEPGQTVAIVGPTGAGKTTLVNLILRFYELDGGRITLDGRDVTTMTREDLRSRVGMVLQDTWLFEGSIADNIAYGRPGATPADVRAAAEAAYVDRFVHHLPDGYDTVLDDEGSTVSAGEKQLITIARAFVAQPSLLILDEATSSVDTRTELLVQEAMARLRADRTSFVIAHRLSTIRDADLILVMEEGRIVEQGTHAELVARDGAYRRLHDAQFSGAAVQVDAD
The assay can be described thus: ITC; replicate #2.

Assay [4] addresses T4, OmrE (OmrE-His) (Omithinimicrobium cerasi strain USBA17B2, UniProt A0A285VWG3 1-661).
T4 construct: OmrE-His calculated as 72.09 kDa; source: E. coli C43 (DE3), purified (DDM-solubilized membrane fraction, Ni2+-NTA agarose)
T4 sequence (looked up): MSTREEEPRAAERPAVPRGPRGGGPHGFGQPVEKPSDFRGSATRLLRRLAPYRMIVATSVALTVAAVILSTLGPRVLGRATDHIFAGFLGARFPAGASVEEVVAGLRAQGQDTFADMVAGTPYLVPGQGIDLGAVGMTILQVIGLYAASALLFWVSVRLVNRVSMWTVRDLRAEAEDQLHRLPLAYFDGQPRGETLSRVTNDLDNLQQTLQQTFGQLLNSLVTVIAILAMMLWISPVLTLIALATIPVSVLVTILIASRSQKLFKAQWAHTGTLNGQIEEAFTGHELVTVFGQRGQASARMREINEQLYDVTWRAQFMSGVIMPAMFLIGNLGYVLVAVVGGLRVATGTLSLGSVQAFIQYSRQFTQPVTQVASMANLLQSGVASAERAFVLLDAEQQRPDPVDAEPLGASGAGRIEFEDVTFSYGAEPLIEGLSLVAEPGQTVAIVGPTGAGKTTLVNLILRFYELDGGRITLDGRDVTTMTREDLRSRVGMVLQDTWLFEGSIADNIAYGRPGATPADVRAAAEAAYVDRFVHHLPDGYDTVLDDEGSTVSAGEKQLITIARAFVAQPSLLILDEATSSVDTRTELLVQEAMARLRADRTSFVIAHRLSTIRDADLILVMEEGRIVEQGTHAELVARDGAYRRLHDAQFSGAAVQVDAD
Put plainly: ITC; OcHeR injected into the Omr protein; 25 °C, 500 rpm; buffer SD; MicroCal ITC200; one site binding model (sequential binding site model for R233Q); perfect saturation was not achieved. The note with it: both partners purified.

For assay [5], the target named is T5, NBD-truncated OmrDE (OmrD^tcE^tc) (Omithinimicrobium cerasi strain USBA17B2).
T5 chain 1: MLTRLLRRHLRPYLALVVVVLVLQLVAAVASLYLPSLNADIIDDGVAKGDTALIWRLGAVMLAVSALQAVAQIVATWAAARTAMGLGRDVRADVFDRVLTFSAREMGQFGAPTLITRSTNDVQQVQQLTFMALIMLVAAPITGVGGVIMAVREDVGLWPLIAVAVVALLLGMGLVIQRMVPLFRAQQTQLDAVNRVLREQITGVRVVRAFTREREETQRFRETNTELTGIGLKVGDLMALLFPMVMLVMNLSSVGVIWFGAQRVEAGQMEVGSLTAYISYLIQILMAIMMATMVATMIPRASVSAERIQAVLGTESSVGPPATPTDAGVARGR
T5 chain 2: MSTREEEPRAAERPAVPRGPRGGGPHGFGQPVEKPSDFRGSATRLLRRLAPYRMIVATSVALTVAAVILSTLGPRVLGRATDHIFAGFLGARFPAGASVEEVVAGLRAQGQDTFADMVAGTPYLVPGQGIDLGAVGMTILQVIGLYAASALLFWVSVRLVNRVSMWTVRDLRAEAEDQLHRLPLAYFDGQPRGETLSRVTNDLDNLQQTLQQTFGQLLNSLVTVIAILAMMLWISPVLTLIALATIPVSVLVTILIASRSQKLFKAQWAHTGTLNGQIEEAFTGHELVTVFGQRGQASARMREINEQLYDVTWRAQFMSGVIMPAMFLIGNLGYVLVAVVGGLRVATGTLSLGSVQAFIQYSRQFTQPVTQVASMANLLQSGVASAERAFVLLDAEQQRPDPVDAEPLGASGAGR
The description is as above. Particulars: both partners purified.

For assay [6], the target named is T6, heterodimeric multidrug resistance ABC transporter OmrDE (Omithinimicrobium cerasi strain USBA17B2, UniProt A0A285VW85 1-577; A0A285VWG3 1-661).
T6 construct: gene codon-optimized and synthesized; also called OmrDE heterodimer; source: E. coli C43 (DE3), OmrD and OmrE co-expressed, purified (DDM-solubilized membrane fraction, Ni2+-NTA agarose)
T6 sequence (looked up) 1: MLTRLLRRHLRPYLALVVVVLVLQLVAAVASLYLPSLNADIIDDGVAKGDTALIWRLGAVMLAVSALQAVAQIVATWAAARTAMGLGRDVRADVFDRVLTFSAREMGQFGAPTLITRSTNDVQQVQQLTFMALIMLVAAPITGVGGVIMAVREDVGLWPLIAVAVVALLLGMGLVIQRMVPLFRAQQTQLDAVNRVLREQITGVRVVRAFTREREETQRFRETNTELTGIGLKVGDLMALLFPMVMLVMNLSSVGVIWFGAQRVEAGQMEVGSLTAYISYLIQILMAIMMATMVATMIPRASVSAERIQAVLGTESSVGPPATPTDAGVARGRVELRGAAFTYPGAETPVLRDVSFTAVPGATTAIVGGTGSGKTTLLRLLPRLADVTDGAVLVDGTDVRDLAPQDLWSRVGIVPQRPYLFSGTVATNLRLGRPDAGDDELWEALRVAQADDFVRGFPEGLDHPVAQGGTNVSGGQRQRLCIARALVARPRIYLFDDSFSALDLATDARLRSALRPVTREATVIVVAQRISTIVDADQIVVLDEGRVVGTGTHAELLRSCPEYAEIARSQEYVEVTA
T6 sequence (looked up) 2: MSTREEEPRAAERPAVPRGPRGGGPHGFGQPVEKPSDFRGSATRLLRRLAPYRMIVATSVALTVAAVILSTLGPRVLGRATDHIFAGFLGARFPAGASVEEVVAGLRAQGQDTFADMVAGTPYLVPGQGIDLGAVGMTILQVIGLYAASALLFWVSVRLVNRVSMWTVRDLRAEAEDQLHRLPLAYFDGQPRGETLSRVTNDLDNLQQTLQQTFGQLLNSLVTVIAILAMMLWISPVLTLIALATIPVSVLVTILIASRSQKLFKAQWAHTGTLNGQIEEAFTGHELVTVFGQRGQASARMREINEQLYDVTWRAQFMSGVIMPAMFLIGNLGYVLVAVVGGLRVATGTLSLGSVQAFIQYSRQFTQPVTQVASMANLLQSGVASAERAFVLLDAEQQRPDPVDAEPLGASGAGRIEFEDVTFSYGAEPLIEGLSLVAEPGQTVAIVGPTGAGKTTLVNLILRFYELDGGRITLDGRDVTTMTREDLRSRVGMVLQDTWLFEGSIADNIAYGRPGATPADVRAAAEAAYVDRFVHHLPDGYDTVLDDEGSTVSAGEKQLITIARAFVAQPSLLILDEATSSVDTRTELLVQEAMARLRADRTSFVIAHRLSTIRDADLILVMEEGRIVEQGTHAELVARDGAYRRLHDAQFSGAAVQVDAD
Described as above. The note with it: both partners purified.

Assay [7] addresses T6, heterodimeric multidrug resistance ABC …. The assay can be described thus: cell-based or functional assay.

B1: Omithinimicrobium cerasi strain USBA17B2 heliorhodopsin (OcHeR) WT (natural protein, UniProt A0A285W045 1-266, looked up)
chain: MGSTGTGSTASTTRADESRYAGLRRYNVVAAVVHAAQAVAVVVLATDFTLPMTASYLAGPPGSPPGEAVTLWDVPIPLAIATFLALSALFHVIVASPPFFDRYRRGLAQGHNYFRWVEYSLSSSLMIVIIAQLVGISDVVALLGLFGVNASMILFGWLQEKYHQPGDGGWLPFVFGCLAGAVPWVGIVLYTIAPGSTSGAEPPGFVYGIIVSLFLFFNVFALVQWLQYRPVGRFRDYLLGERLYITLSLVAKSALAWQIFGGTLAT
modifications: retinal Schiff base linked to K252
notes: gene codon-optimized for E. coli and chemically synthesized; source: E. coli C43 (DE3), purified (DDM-solubilized membrane fraction, Ni2+-NTA agarose)
In the case of B1, the Kd with OmrE (OmrE-His) [1] is 24 µM; in assay [2] it was 29 µM; in assay [3], 122 µM; in the assay with OmrE (OmrE-His) [4], 35.3 µM; in assay [6], 91.6 µM. The dH was 35.5 kcal/mol with OmrE (OmrE-His) [4], -35.5 kcal/mol in assay [5] and 48.9 kcal/mol in assay [6]. Further, the “DAPI translocation capacity of OmrDE co-expressed with OcHeR WT in IMVs at 15 min, presence of light against absence of light” value in assay [7] was 3 fold. Besides, the “half-life (t1/2) of the G state (554 nm) of the OcHeR photocycle with OmrDE against OcHeR WT alone” value in assay [7] is 1.6 fold. Also, the “half-life (t1/2) of the O state (618 nm) of the OcHeR photocycle with OmrDE against OcHeR WT alone” value in assay [7] was found to be 2.2 fold.

The values above are taken from PMC11109279, “Heliorhodopsin-mediated light-modulation of ABC transporter” (Nature Communications, 2024).
